This note sets out measurements from US20260167721A1 (ABLEXIS, published 2026).

Assay [1] has as its target T1, recombinant CD3 proteins (UniProt P07766 23-126).
T1 construct: elsewhere it uses human CD3 E/D and E/G heterodimers
Put plainly: Octet BLI, recombinant CD3; Full R^2 0.9688.

Assay [2] addresses T1, recombinant CD3 proteins. Put plainly: Octet BLI, recombinant CD3; Full R^2 0.998. (BLI is a label-free optical method that tracks binding on a fibre tip over time.)
In assay [3] the target is T1, recombinant CD3 proteins. Put plainly: Octet BLI, recombinant CD3; Full R^2 0.966.
The target in assay [4] is T1, recombinant CD3 proteins. Put plainly: Octet BLI, recombinant CD3; Full R^2 0.9986.
Assay [5] concerns the target T1, recombinant CD3 proteins. Put plainly: Octet BLI, recombinant CD3; Full R^2 0.9823.
Assay [6] addresses T1, recombinant CD3 proteins. Kind of assay: Octet BLI, recombinant CD3; Full R^2 0.9872.
For assay [7], the target named is T1, recombinant CD3 proteins. Kind of assay: Octet BLI, recombinant CD3; Full R^2 0.8423.
In assay [8] the target is T1, recombinant CD3 proteins. Put plainly: Octet BLI, recombinant CD3; Full R^2 0.9968.
The target in assay [9] is T1, recombinant CD3 proteins. Put plainly: Octet BLI, recombinant CD3; Full R^2 0.9991.
Assay [10] deals with T1, recombinant CD3 proteins. Kind of assay: Octet BLI, recombinant CD3; Full R^2 0.9966.

T1 sequence (P07766 23-126): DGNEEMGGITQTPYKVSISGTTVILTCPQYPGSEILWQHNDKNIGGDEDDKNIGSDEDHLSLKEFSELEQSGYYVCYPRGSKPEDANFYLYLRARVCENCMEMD

B1: CD3 × CD33-BspAb88 (bispecific antibody)
chain 1: QVQLVQSGAEVKKPGASLKVSCKASGYTFTSYYMHWVRQAPGQCLEWMGIINPSNGNTISAQKFQGRVTMTRDTSTSTVYMEMSSLRSEDTAVYYCVRSWGYYVMDVWGQGTTVTVSSGGGGSGGGGSGGGGSGGGGSQTVVTQEPSFSVSPGGTVTLTCGLNSGSVSTSYYPSWYQQTPGQTPRTLIYSTNTRSSGVPDRFSGSILGNKAALTITGAQADDESDYYCVLYMGSGIWVFGCGTKLTVLDKTHTCPPCPAPEFEGGPSVFLFPPKPKDTLMISRTPEVTCVVVDVSHEDPEVKFNWYVDGVEVHNAKTKPREEQYNSTYRVVSVLTVLHQDWLNGKEYKCKVSNKALPASIEKTISKAKGQPREPQVYTLPPCREEMTKNQVSLWCLVKGFYPSDIAVEWESNGQPENNYKTTPPVLDSDGSFFLYSKLTVDKSRWQQGNVFSCSVMHEALHNHYTQKSLSLSPGK
chain 2: EVQLVQSGAEVKKPGSSVKVSCKASGYTITDSNIHWVRQAPGQSLEWIGYIYPYNGGTDYNQKFKNRATLTVDNPTNTAYMELSSLRSEDTAFYYCVNGNPWLAYWGQGTLVTVSSASTKGPSVFPLAPSSKSTSGGTAALGCLVKDYFPEPVTVSWNSGALTSGVHTFPAVLQSSGLYSLSSVVTVPSSSLGTQTYICNVNHKPSNTKVDKRVEPKSCDKTHTCPPCPAPEFEGGPSVFLFPPKPKDTLMISRTPEVTCVVVDVSHEDPEVKFNWYVDGVEVHNAKTKPREEQYNSTYRVVSVLTVLHQDWLNGKEYKCKVSNKALPASIEKTISKAKGQPREPQVCTLPPSREEMTKNQVSLSCAVKGFYPSDIAVEWESNGQPENNYKTTPPVLDSDGSFFLVSKLTVDKSRWQQGNVFSCSVMHEALHNRFTQKSLSLSPGK
chain 3: DIQLTQSPSTLSASVGDRVTITCRASESLDNYGIRFLTWFQQKPGKAPKLLMYAASNQGSGVPSRFSGSGSGTEFTLTISSLQPDDFATYYCQQTKEVPWSFGQGTKVEVKRTVAAPSVFIFPPSDEQLKSGTASVVCLLNNFYPREAKVQWKVDNALQSGNSQESVTEQDSKDSTYSLSSTLTLSKADYEKHKVYACEVTHQGLSSPVTKSFNRGEC
The Kd is the concentration at which binding is half-saturated. As a reminder, the koff is the rate constant with which the complex falls apart. A word on the kon: it is a measure of how fast the partners come together. For B1, in [1], the Kd was determined as 12.6 nM, the dissociation rate constant (koff) worked out at 0.000778 s⁻¹ and the kon was 61800 M⁻¹ s⁻¹.

B2: CD3 × CD33-BspAb91 (bispecific antibody)
chain 1: DIQMTQSPSTLSASVGDRVTITCRASQSISSWLAWFQQKTGKAPKLLIYKASSLESGVPSRFSGSGSGTEFTLTISSLQPDDFATYYCQQYISYSWTFGCGTKVEIKGGGGSGGGGSGGGGSGGGGSEVQLVESGGGLVQRGGSLRLSCAASGFTFSNYWMSWVRQAPGKCLEWVANIKEDGSEKYYVDSVKGRFTISRDNAKHSLYLQMNSLRAEDTAVYYCARERRTGYFDYWGQGTLVTVSSDKTHTCPPCPAPEFEGGPSVFLFPPKPKDTLMISRTPEVTCVVVDVSHEDPEVKFNWYVDGVEVHNAKTKPREEQYNSTYRVVSVLTVLHQDWLNGKEYKCKVSNKALPASIEKTISKAKGQPREPQVYTLPPCREEMTKNQVSLWCLVKGFYPSDIAVEWESNGQPENNYKTTPPVLDSDGSFFLYSKLTVDKSRWQQGNVFSCSVMHEALHNHYTQKSLSLSPGK
chain 2: B1 chain 2
chain 3: B1 chain 3
With B2, in assay [2], the Kd came to 63.8 nM, the koff was 0.00203 s⁻¹ and the kon came out at 31900 M⁻¹ s⁻¹.

B3: CD3 × CD33-BspAb95 (bispecific antibody)
chain 1: NFMLTQPHSVSESPGKTVTISCTRSSGSIASNYVQWYQQRPGSSPTTVIYEDNQRSSGVPDRFSGSIDSSSNSASLTISGLKTEDEADYYCQSYDRSNRVFGCGTKLTVLGGGGSGGGGSGGGGSGGGGSEVQLVESGGGLVKPGGSLRLSCSASGFTFSTYTMNWVRQAPGKCLEWVSSISKSSSYIYYTDSVKGRFTISRDNAKNSLYLQMNSLRAEDTAVYYCARERRTLAFDIWGQGTMVTVSSDKTHTCPPCPAPEFEGGPSVFLFPPKPKDTLMISRTPEVTCVVVDVSHEDPEVKFNWYVDGVEVHNAKTKPREEQYNSTYRVVSVLTVLHQDWLNGKEYKCKVSNKALPASIEKTISKAKGQPREPQVYTLPPCREEMTKNQVSLWCLVKGFYPSDIAVEWESNGQPENNYKTTPPVLDSDGSFFLYSKLTVDKSRWQQGNVFSCSVMHEALHNHYTQKSLSLSPGK
chain 2: B1 chain 2
chain 3: B1 chain 3
For the molecule B3, in assay [3], the Kd stood at 8.44 nM, the koff turned out to be 0.00457 s⁻¹ and the kon stood at 542000 M⁻¹ s⁻¹.

B4: CD3 × CD33-BspAb92 (bispecific antibody)
chain 1: not shown
chain 2: B1 chain 2
chain 3: B1 chain 3
B4: in assay [4], the Kd worked out at 43.8 nM, the koff was 0.00051 s⁻¹ and the kon is 11600 M⁻¹ s⁻¹.

B5: CD3 × CD33-BspAb96 (bispecific antibody)
chain 1: SYELTQPPSVSVSPGQTARITCSGDALPKKYAYWYQQKSGQAPVLVIYEDSKRPSGIPERFSGSSSGTMATLTISGAQVEDEADYYCYSTDSSGNHSWVFGCGTKLTVLGGGGSGGGGSGGGGSGGGGSEVQLVESGGGLVKPGGSLRLSCAASGFTFSSYSMNWVRQAPGKCLEWVSSVNSRGSYIYYADSVKGRFTISRDNAKDSLYLQMNSLRADDTAVYYCARDRRELLLDYWGQGTLVTVSSDKTHTCPPCPAPEFEGGPSVFLFPPKPKDTLMISRTPEVTCVVVDVSHEDPEVKFNWYVDGVEVHNAKTKPREEQYNSTYRVVSVLTVLHQDWLNGKEYKCKVSNKALPASIEKTISKAKGQPREPQVYTLPPCREEMTKNQVSLWCLVKGFYPSDIAVEWESNGQPENNYKTTPPVLDSDGSFFLYSKLTVDKSRWQQGNVFSCSVMHEALHNHYTQKSLSLSPGK
chain 2: B1 chain 2
chain 3: B1 chain 3
B5: in assay [5], the Kd amounted to 573 nM, the koff amounted to 0.21 s⁻¹ and the kon turned out to be 366000 M⁻¹ s⁻¹.

B6: CD3 × CD33-BspAb93 (bispecific antibody)
chain 1: NFMLTQPHSVSESPGKTVTISCTRSSGSIASKYVQWYQQRPGSSPTTVIYEDNQRPSGVPDRFSGSIDSSSNSASLTISGLKTEDEADYYCQSYYSNNRVFGCGTKLTVLGGGGSGGGGSGGGGSGGGGSEVQLVESGGGLVQPGGSLRLSCAASGFTFSRYSMNWVRQAPGKCLEWVSYISRSSTTIYYADSVKGRFTISRDNAKNSLYLQMNSLRDEDAAVYYCARERWELLYFDYWGQGTLVTVSSDKTHTCPPCPAPEFEGGPSVFLFPPKPKDTLMISRTPEVTCVVVDVSHEDPEVKFNWYVDGVEVHNAKTKPREEQYNSTYRVVSVLTVLHQDWLNGKEYKCKVSNKALPASIEKTISKAKGQPREPQVYTLPPCREEMTKNQVSLWCLVKGFYPSDIAVEWESNGQPENNYKTTPPVLDSDGSFFLYSKLTVDKSRWQQGNVFSCSVMHEALHNHYTQKSLSLSPGK
chain 2: B1 chain 2
chain 3: B1 chain 3
With B6, in [6], the dissociation constant Kd was determined as 14.8 nM, the koff turned out to be 0.00516 s⁻¹ and the kon was determined as 349000 M⁻¹ s⁻¹.

B7: CD3 × CD33-BspAb89 (bispecific antibody)
chain 1: not shown
chain 2: B1 chain 2
chain 3: B1 chain 3
For B7, in assay [7], the Kd came out at 24.4 nM, the koff amounted to 0.0578 s⁻¹ and the kon was 2.37e+06 M⁻¹ s⁻¹.

B8: CD3 × CD33-BspAb90 (bispecific antibody)
chain 1: not shown
chain 2: B1 chain 2
chain 3: B1 chain 3
For B8, in assay [8], the Kd came to 334 nM, the koff is 0.00459 s⁻¹ and the association rate constant (kon) stood at 13800 M⁻¹ s⁻¹.

B9: CD3 × CD33-BspAb97 (bispecific antibody)
chain 1: SYELTQPPSVSVSPGQTARITCSGDALPKKYAYWYQQKSGQAPVLVIYEDSKRPSGIPERFSGSSSGTMATLTISGAQVEDEADYYCYSTDSSGNHWVFGCGTKLTVLGGGGSGGGGSGGGGSGGGGSEVQLVESGGGLVKPGGSLRLSCAASGFTFSNYYMNWVRQAPGKCLERVSSISSSSNYIYYADSVKGRFTISRDNAKNSLYLQMNSLRAEDTAVYYCARDRRELPLDYWGQGTVVTVSSDKTHTCPPCPAPEFEGGPSVFLFPPKPKDTLMISRTPEVTCVVVDVSHEDPEVKFNWYVDGVEVHNAKTKPREEQYNSTYRVVSVLTVLHQDWLNGKEYKCKVSNKALPASIEKTISKAKGQPREPQVYTLPPCREEMTKNQVSLWCLVKGFYPSDIAVEWESNGQPENNYKTTPPVLDSDGSFFLYSKLTVDKSRWQQGNVFSCSVMHEALHNHYTQKSLSLSPGK
chain 2: B1 chain 2
chain 3: B1 chain 3
As for B9, in assay [9], the Kd is 276 nM, the koff came out at 0.0854 s⁻¹ and the kon was found to be 309000 M⁻¹ s⁻¹.

B10: CD3 × CD33-BspAb94 (bispecific antibody)
chain 1: NFMLTQPHSVSESPGKTVTISCTRSSGSIASNYVQWYQQRPGSSPTTVIYEDNQRPSGVPDRFSGSIDSSSNSASLTISGLKTEDEADYYCQSYDSSNRVFGCGTKLTVLGGGGSGGGGSGGGGSGGGGSEVQLVESGGGLVKPGGSLRLSCAASGFTFSSYTMNWVRQAPGKCLEWVSSITTSSSYIYYADSVKGRFTISRDNAKNSLYLQMNSLRAEDTAVYYCARVTFDAFDIWGQGTMVTVSSDKTHTCPPCPAPEFEGGPSVFLFPPKPKDTLMISRTPEVTCVVVDVSHEDPEVKFNWYVDGVEVHNAKTKPREEQYNSTYRVVSVLTVLHQDWLNGKEYKCKVSNKALPASIEKTISKAKGQPREPQVYTLPPCREEMTKNQVSLWCLVKGFYPSDIAVEWESNGQPENNYKTTPPVLDSDGSFFLYSKLTVDKSRWQQGNVFSCSVMHEALHNHYTQKSLSLSPGK
chain 2: B1 chain 2
chain 3: B1 chain 3
Regarding B10, in assay [10], the Kd turned out to be 645 nM, the koff was 0.0738 s⁻¹ and the on-rate constant (kon) is 115000 M⁻¹ s⁻¹.
